Data reported in patent US20120034161A1, “PRETARGETING KIT, METHOD AND AGENTS USED THEREIN” (KONINKLIJKE PHILIPS ELECTRONICS N.V., priority 2009, published 2012).

System: human colon cancer cell line LS174T
Settings: mouse, in vivo

Which 125I-mAb in tumor does the source give for “Rtx-TCO: TCO-modified rituximab for control in vivo experiments; lacks specificity for TAG72” here?
The 125I-mAb in tumor was 6.3±1.2 % ID/g.
